Columns and labels:
Assay in all cases: two-hybrid library CCNG1;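 also: natural log of median RNA to DNA barcode read ratio; higher means stronger binding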
[1] = target: T1, P4A-bP
T1 chain: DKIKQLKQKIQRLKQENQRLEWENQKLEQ

[2] = target: T2, 4H568-bH
T2 chain: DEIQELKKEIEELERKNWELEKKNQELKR

[3] = target: T3, 4H932-bH
T3 chain: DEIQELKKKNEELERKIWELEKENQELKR

[4] = target: T4, 4H908-bH
T4 chain: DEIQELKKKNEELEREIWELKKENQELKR

[5] = target: T5, 4H967-bH
T5 chain: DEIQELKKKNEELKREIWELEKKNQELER

[6] = target: T6, 4H454-bH
T6 chain: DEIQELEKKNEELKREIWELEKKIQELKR

[7] = target: T7, 4H462-bH
T7 chain: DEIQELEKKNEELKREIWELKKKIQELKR

[8] = target: T8, 4H953-bH
T8 chain: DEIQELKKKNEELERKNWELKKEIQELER

[9] = target: T9, 4H754-bH
T9 chain: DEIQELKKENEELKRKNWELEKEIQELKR

[10] = target: T10, 4H717-bH
T10 chain: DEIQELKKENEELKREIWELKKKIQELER

[11] = target: T11, 4H918-bH
T11 chain: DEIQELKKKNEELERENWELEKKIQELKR

[12] = target: T12, 4H883-bH
T12 chain: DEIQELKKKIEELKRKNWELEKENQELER

[13] = target: T13, 4H797-bH
T13 chain: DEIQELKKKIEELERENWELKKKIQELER

[14] = target: T14, 4H607-bH
T14 chain: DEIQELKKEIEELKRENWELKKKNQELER

[15] = target: T15, 4H4001-bH
T15 chain: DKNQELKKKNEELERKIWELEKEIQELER

[16] = target: T16, 4H687-bH
T16 chain: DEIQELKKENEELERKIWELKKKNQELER

[17] = target: T17, 4H72-bH
T17 chain: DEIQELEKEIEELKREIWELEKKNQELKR

[18] = target: T18, 4H496-bH
T18 chain: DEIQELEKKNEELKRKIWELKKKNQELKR

[19] = target: T19, 4H3974-bH
T19 chain: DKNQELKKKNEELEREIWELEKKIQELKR

[20] = target: T20, 4H570-bH
T20 chain: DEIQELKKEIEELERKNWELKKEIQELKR

[21] = target: T21, 4H3497-bH
T21 chain: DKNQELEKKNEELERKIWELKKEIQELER

[22] = target: T22, 4H591-bH
T22 chain: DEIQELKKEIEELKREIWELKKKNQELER

[23] = target: T23, 4H1899-bH
T23 chain: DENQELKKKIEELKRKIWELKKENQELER

[24] = target: T24, 4H1804-bH
T24 chain: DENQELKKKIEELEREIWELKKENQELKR

[25] = target: T25, 4H3298-bH
T25 chain: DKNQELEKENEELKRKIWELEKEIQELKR

[26] = target: T26, 4H3414-bH
T26 chain: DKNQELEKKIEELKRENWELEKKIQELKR

[27] = target: T27, 4H3631-bH
T27 chain: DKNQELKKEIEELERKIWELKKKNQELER

[28] = target: T28, 4H1985-bH
T28 chain: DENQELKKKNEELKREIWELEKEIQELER

[29] = target: T29, 4H3628-bH
T29 chain: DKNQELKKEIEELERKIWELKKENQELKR

[30] = target: T30, 4H850-bH
T30 chain: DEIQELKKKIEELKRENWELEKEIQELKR

[31] = target: T31, 4H3858-bH
T31 chain: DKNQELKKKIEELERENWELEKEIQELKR

[32] = target: T32, 4H3638-bH
T32 chain: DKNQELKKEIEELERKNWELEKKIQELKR

[33] = target: T33, 4H3162-bH
T33 chain: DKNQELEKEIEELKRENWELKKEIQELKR

[34] = target: T34, 4H3129-bH
T34 chain: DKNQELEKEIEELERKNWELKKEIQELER

[35] = target: T35, 4H3613-bH
T35 chain: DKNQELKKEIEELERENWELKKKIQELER

[36] = target: T36, 4H626-bH
T36 chain: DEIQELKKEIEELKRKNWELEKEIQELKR

[37] = target: T37, 4H3172-bH
T37 chain: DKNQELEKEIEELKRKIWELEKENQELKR

[38] = target: T38, 4H619-bH
T38 chain: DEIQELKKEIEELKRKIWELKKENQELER

[39] = target: T39, 4H3462-bH
T39 chain: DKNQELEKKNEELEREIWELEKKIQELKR

[40] = target: T40, 4H3175-bH
T40 chain: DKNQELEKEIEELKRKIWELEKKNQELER

[41] = target: T41, 4H3926-bH
T41 chain: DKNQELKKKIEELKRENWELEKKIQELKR

[42] = target: T42, 4H906-bH
T42 chain: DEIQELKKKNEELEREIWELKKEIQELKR

[43] = target: T43, 4H1710-bH
T43 chain: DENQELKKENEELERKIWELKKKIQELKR

[44] = target: T44, 4H3817-bH
T44 chain: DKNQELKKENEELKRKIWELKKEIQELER

[45] = target: T45, 4H3277-bH
T45 chain: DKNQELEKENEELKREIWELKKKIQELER

[46] = target: T46, 4H3381-bH
T46 chain: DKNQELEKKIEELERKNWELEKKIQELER

[47] = target: T47, 4H584-bH
T47 chain: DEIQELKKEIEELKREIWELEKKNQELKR

[48] = target: T48, 4H3185-bH
T48 chain: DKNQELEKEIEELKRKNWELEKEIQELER

[49] = target: T49, 4H2729-bH
T49 chain: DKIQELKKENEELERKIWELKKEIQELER

[50] = target: T50, 4H3112-bH
T50 chain: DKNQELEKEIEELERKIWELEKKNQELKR

[51] = target: T51, 4H3782-bH
T51 chain: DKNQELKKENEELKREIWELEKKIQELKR

[52] = target: T52, 4H2667-bH
T52 chain: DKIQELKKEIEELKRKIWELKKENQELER

[53] = target: T53, 4H331-bH
T53 chain: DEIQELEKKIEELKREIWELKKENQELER

[54] = target: T54, 4H2618-bH
T54 chain: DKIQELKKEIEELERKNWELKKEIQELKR

[55] = target: T55, 4H3855-bH
T55 chain: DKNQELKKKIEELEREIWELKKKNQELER

[56] = target: T56, 4H3354-bH
T56 chain: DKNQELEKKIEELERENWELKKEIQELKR

[57] = target: T57, 4H338-bH
T57 chain: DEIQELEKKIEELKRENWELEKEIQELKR

[58] = target: T58, 4H3427-bH
T58 chain: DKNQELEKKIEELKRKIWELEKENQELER

[59] = target: T59, 4H48-bN
T59 chain: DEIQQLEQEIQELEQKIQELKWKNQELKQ

[60] = target: T60, P6A-bP
T60 chain: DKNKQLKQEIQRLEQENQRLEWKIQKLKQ

[61] = target: T61, P9A-bP
T61 chain: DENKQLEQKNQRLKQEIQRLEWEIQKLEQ

[62] = target: T62, P8A-bP
T62 chain: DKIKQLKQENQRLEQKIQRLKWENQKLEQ

[63] = target: T63, P7A-bP
T63 chain: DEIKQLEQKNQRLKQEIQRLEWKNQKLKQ

[64] = target: T64, P5A-bP
T64 chain: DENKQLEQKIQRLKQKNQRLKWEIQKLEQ

[65] = target: T65, 4H491-bA
T65 chain: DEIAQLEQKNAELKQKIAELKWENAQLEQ

[66] = target: T66, 4H48-bA
T66 chain: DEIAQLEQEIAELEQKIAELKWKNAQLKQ

Binder: DKNQELKKKNEELERKIWELEKEIQELER [4H4001-bH]
- interaction score [1]: 0.398
- interaction score [2]: -0.215
- interaction score [3]: 0.0317
- interaction score [4]: -0.558
- interaction score [5]: -2.28
- interaction score [6]: 1.29
- interaction score [7]: -0.256
- interaction score [8]: -1.36
- interaction score [9]: -0.348
- interaction score [10]: -0.479
- interaction score [11]: -2.1
- interaction score [12]: -1.67
- interaction score [13]: -0.61
- interaction score [14]: -2.7
- interaction score [15]: -0.117
- interaction score [16]: -0.869
- interaction score [17]: -2.05

Binder: DEIQELEKKNEELKRKIWELKKKNQELKR [4H496-bH]
- interaction score [18]: -0.197

Binder: DENQELKKENEELERKIWELKKKIQELKR [4H1710-bH]
- interaction score [19]: 0.887
- interaction score [20]: -0.481
- interaction score [21]: 0.794
- interaction score [22]: -1.94
- interaction score [23]: 0.26
- interaction score [24]: -0.929
- interaction score [25]: -0.00934
- interaction score [26]: -0.234
- interaction score [27]: 0.643
- interaction score [28]: 0.219
- interaction score [29]: 1.35
- interaction score [30]: 0.221
- interaction score [31]: -0.238
- interaction score [32]: -0.567
- interaction score [33]: -0.655
- interaction score [34]: 0.0138
- interaction score [35]: -0.955
- interaction score [36]: 0.853
- interaction score [37]: 0.358
- interaction score [38]: 0.404
- interaction score [39]: 0.869
- interaction score [40]: 0.0594
- interaction score [41]: 0.806
- interaction score [42]: -0.745
- interaction score [43]: 0.661
- interaction score [44]: 0.823
- interaction score [45]: 0.846
- interaction score [46]: -1.3
- interaction score [47]: 0.848

Binder: DENQELKKKIEELEREIWELKKENQELKR [4H1804-bH]
- interaction score [19]: -0.359
- interaction score [20]: -0.192
- interaction score [24]: 0.525
- interaction score [26]: -0.0322
- interaction score [27]: -0.276
- interaction score [28]: 0.0377
- interaction score [30]: -0.238
- interaction score [32]: -0.512
- interaction score [34]: -0.437
- interaction score [37]: -0.154
- interaction score [38]: -0.693
- interaction score [42]: -0.842
- interaction score [44]: -0.0504
- interaction score [47]: 0.198

Binder: DKIQELKKEIEELERKNWELKKEIQELKR [4H2618-bH]
- interaction score [48]: 1.08
- interaction score [2]: -0.291
- interaction score [49]: 2
- interaction score [50]: -0.148
- interaction score [4]: -1.01
- interaction score [51]: -0.244
- interaction score [52]: 0.678
- interaction score [5]: -0.781
- interaction score [6]: 1.16
- interaction score [8]: 0.869
- interaction score [9]: -0.696
- interaction score [10]: -0.283
- interaction score [11]: 0.911
- interaction score [53]: 1.85
- interaction score [12]: 0.271
- interaction score [13]: 0.872
- interaction score [54]: 1.05
- interaction score [55]: -0.442
- interaction score [56]: 0.422
- interaction score [57]: 1.42
- interaction score [58]: 1.07
- interaction score [14]: -1.63
- interaction score [15]: 0.338
- interaction score [16]: 0.466
- interaction score [59]: 1.54
- interaction score [17]: -0.76

Binder: DKIKQLKQKIQRLKQENQRLEWENQKLEQ [P4A-bP]
- interaction score [1]: -1.09
- interaction score [60]: -0.773
- interaction score [61]: -0.489
- interaction score [62]: -0.918
- interaction score [63]: -1.51
- interaction score [64]: -1.59

Binder: DEIAQLEQEIAELEQKIAELKWKNAQLKQ [4H48-bA]
- interaction score [65]: 1.09
- interaction score [66]: 1.25

From PMC10397247
